Measured values: patent US20220242957A1 (MARENGO THERAPEUTICS, published 2022)

Columns and labels:
mouse CCR2 = target: T1, mouse CCR2 (mouse, UniProt P51683 1-373); test: flow cytometry on ExpiCHO cells transiently transfected with mouse CCR2; goat anti-mouse Fc biotin and streptavidin-PE
T1 construct: whole, on cells; also called mCCR2
Experimental: (§1) ExpiCHO cells were transiently transfected with mouse CCR2, mouse CSF1R, or both mouse CCR2 and CSF1R, according to the manufacturer's instructions. In brief, the transfections were performed with ExpiCHO cells at a cell density of 5.6-6.3×10⁶ cells/mL and at least 95% viability. For each transfection, 25 μg of DNA was diluted with 1 mL of OptiPro SFM (Gibco 12309050) and filtered using spin-X centrifuge tube filters (Corning 8160). A solution of 920 µL of OptiPro and 80 μL of expifectamine was added to the filtered DNA, incubated for 1 minute at room temperature, and then added to the cells. On day 1 of the transfection, the cells were enhanced using 150 μL of ExpiCHO enhancer.
(§2) On day 2 of the transfection, the cells were washed with PBS containing 1% BSA (Sigma) and used to set 96-well V-bottom plates (Biotix AP-0350-9CVS) with 100,000 cells/well. UniTI-01 was added to the cells in serial dilutions and incubated for 1 hour at 4° C. The plates were washed twice with PBS containing 1% BSA. […] The plates were read on a CytoFLEX S (Beckman Coulter). Data were calculated as the median fluorescence intensity of the PE-positive population vs. the median fluorescence intensity of the PE-negative population. The data was normalized for the percent of total median fluorescence intensity.

mouse CSF1R = target: T2, mouse CSF1R (mouse, UniProt P09581 20-977); test: flow cytometry on ExpiCHO cells transiently transfected with mouse CSF1R; goat anti-mouse Fc biotin and streptavidin-PE
T2 construct: whole, on cells; also called mCSF1R
T2 sequence (looked up): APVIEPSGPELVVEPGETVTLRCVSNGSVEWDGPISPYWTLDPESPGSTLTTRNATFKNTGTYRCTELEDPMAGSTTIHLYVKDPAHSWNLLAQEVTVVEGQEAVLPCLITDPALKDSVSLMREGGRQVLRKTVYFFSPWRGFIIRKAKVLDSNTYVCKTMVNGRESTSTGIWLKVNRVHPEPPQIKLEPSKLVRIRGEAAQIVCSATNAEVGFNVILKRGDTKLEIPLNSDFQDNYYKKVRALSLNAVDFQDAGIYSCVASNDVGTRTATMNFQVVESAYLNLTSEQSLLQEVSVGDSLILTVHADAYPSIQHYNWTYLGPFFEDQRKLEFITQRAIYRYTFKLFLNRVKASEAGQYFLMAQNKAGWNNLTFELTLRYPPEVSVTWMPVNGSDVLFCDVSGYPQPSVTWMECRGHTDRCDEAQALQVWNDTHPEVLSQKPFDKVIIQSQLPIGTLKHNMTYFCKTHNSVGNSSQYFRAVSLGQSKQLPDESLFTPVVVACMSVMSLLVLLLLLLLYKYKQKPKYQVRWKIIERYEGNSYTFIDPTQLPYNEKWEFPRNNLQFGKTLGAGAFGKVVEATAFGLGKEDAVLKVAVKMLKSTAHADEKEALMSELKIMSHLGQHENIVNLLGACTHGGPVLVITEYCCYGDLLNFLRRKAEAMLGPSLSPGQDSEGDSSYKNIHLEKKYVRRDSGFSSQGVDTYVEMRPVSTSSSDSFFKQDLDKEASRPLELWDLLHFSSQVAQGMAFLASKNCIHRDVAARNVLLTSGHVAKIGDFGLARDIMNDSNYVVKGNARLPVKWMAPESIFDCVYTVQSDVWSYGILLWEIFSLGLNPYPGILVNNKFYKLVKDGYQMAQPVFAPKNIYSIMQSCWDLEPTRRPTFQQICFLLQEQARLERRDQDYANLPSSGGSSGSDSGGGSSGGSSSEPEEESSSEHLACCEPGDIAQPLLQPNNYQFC
Experimental: as §1, §2

[1] = target: T3, mouse CCR2 and mouse CSF1R, both expressed on the same ExpiCHO cells (mouse, UniProt P51683 1-373; P09581 20-977); test: flow cytometry on ExpiCHO cells transiently transfected with both mouse CCR2 and mouse CSF1R; goat anti-mouse Fc biotin and streptavidin-PE
T3 construct: whole, on cells; Two separate membrane proteins on one cell, not a complex; also called CCR2 and CSF1R double positive cells; both mCCR2 and mCSF1R
Experimental: as §1, §2

T1 sequence (P51683 whole entry): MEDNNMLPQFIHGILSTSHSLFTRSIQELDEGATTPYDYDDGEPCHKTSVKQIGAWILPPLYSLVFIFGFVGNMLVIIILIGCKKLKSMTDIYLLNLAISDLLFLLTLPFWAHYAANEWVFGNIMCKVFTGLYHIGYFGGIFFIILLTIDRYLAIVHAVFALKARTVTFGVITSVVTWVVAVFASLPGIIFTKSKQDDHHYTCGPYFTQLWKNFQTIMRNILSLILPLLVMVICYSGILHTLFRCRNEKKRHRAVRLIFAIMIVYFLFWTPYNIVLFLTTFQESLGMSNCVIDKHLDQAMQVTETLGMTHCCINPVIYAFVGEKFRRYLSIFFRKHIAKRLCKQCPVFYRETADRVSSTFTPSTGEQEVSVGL
T3 sequence (P51683 whole entry, one chain of several): as the sequence (P51683 whole entry) above

B1: UniTI-01 (multispecific molecule #1, anti-CCR2/anti-CSF1R bispecific antibody) (bispecific antibody)
heavy 1: QVQLQESGPGLVQPSQTLSLTCTVSGFSLTDFSVHWVRQPPGKGLEWMGRIRSEGNTDYNSALKSRLSISRDTSKSQVFLKMNSLQTEDTAIYFCTRGDILGFGYWGQGVMVTVSSAQTTAPSVYPLAPGCGDTTSSTVTLGCLVKGYFPEPVTVTWNSGALSSDVHTFPAVLQSGLYTLTSSVTSSTWPSQTVTCNVAHPASSTKVDKKVERRTIKPCPPCKCPAPNLLGGPSVFIFPPKIKDVLMISLSPIVTCVVVDVSEDDPDVQISWFVNNVEVHTAQTQTHREDYNSTLRVVSALPIQHQDWMSGKEFKCKVNNKDLPAPIERTISKPKGSVRAPQVYVLPPCEEEMTKKQVTLWCMVTDFMPEDIYVEWTNNGKTELNYKNTEPVLDSDGSYFMYSKLRVEKKNWVERNSYSCSVVHEGLHNHHTTKSFSRTPGK
light 1: DIVMTQSPLSVSVTPGESASISCRSSKSLLHFKGITFVYWYLQKPGQSPQLLIFRMSSLASGVPDRFSGSGSETDFTLKISRVEAEDVGTYYCGQLLENPYTFGAGTKLELKRADAAPTVSIFPPSMEQLTSGGATVVCFVNNFYPRDISVKWKIDGSEQRDGVLDSVTDQDSKDSTYSMSSTLSLTKVEYERHNLYTCEVVHKTSSSPVVKSFNRNEC
heavy 2: QVQLQQSGAELVKPGSSVKISCKASGYTFTSNFMHWIKQQPGNGLEWIGWIYPGDGDTEYNQKFNGKATLTADKSSSTAYMQLSSLTSEDSAVYFCAVNYGGYVLDAWGQGASVTVSSAETTAPSVYPLAPGTALKSNSMVTLGCLVKGYFPEPVTVTWNSGALSSGVHTFPAVLQSGLYTLTSSVTVPSSTWSSQAVTCNVAHPASSTKVDKKIVPRECNTIKPCPPCKCPAPNLLGGPSVFIFPPKIKDVLMISLSPIVTCVVVDVSEDDPDVQISWFVNNVEVHTAQTQTHREDYNSTLRVVSALPIQHQDWMSGKEFKCKVNNKDLPAPIERTISKPKGSVRAPQVCVLPPPEEEMTKKQVTLSCAVTDFMPEDIYVEWTNNGKTELNYKNTEPVLDSDGSYFMVSKLRVEKKNWVERNSYSCSVVHEGLHNHHTTKSFSRTPGK
light 2: EIVLTQSPTTMAASPGEKVTITCRASSSTNYMSWYQQKSGASPKPWIYETSKLASGVPDRFSGSGSGTSYSFTISSMETEDAATYYCHQWSSTPLTFGSGTKLEIKRADAAPTVSIFPPSMEQLTSGGATVVCFVNNFYPRDISVKWKIDGSEQRDGVLDSVTDQDSKDSTYSMSSTLSLTKVEYERHNLYTCEVVHKTSSSPVVKSFNRNEC
notes: one arm for each target; also called mUniTI-01
B1 showed an EC50 (mouse CCR2) of 15 nM, an EC50 (mouse CSF1R) of 1 nM and an EC50 [1] of 0.4 nM.
